The source of these data is patent publication US20240408183A1, “KYNURENINE AMINOTRANSFERASE AND PRODUCTS THEREOF FOR THE TREATMENT OF INFLAMMATORY BOWEL DISEASES” (Institut National De Recherche Pour L'Agriculture, …, priority 2021, published 2024).

The subject of experiment [1] is mice submitted to DSS-induced colitis. Kind of experiment: DSS-induced colitis model in mice. The experiment is classed as in vivo, mouse (C57BL/6JRj). The settings on record: purified AADAT intraperitoneally. As to the method:
C57BL/6JRj from Janvier lab, 7 weeks old, were housed in our specific pathogen free animal facility at IERP (INRA, Jouy en Josas, France). Five to ten female mice per group were used in all experiment, were maintained in a temperature controlled (23° C.) facility with a strict 12 h light/dark cycles and were given free access to food and water. After one acclimation week, we changed water with DSS 2% (MP Biomedical) during 7 days (day 0 to day 7), and a
recovery period was practiced until day 12 (during 5 days). Body weight loss and DAI (disease activity index) were performed daily. After 12 days the samples were harvested.
Colon distal part (cut in three parts) was harvested at day 12 after DSS model and put directly in PFA (Rothi®—Histofix 4%) during 48 h and transferred in ethanol 70% until the standard pre-fixation automat and paraffin embedded. HES coloration was practiced on 5Im cut.
Data were analyzed using Prism version 7 (Graphpad Software, San Diego, USA). The non-parametric Mann Withney test or the parametric one-way ANOVA tests with multiple Bonferroni's comparison tests were performed. Values are expressed as mean±SEM. Statistical significance was defined at a p-value ****<0.0001, ***<0.001, **<0.01, *<0.05.

Experiment [2] deals with kynurenine (KYNU) and 3-hydroxykynurenin, substrates of AADAT. Description: AADAT activity test (disappearance of kynurenine/3-hydroxykynurenin; production of KYNA and XANA in vitro). The settings on record: 15 min, KYNU 1000 μM, FIG. 4F. The experiment is classed as biochemical. On the procedure:
KAT activity may be assessed by any method known by the skilled person. For instance, KAT activity could be assessed as described in the experimental section, i.e. an assay based on the disappearance of kynurenine and/or 3-hydroxykynurenin. Briefly, a reaction mixture (50 μL final volume) containing 10 mM L-kynurenine or 3-hydroxykynurenin, 2 mM α-oxoglutarate, 40 μM PLP (pyridoxal 5′-phosphate) and 0 or 1 μL of the protein to be tested prepared in buffer 100 mM potassium phosphate (pH 7.4), is incubated at 37° C. for 15 min. The reaction is stopped by the addition of an equal volume of 30% acetic acid. The supernatant of the reaction mixture, obtained by centrifugation at 3000 g for 10 min at 4° C., is mixed equally with Ehrlich's solution and incubated 15 min at room temperature to have a colorimetric reaction. In parallel, a standard range of kynurenine or 3-hydroxykynurenin from 0 μM to 1000 μM is made under the same conditions. The amount of kynurenine or 3-hydroxykynurenin present in the sample is measured with a spectrophotometer at an OD of 492 nm and calculated using the standard range. […]
The activity test is based on the disappearance of kynurenine and 3-hydroxykynurenin which are substrates of AADAT. […] The amount of kynurenine or 3-hydroxykynurenin present in the sample was measured with a spectrophotometer at an OD of 492 nm and calculated using the standard range (FIG. 4E).

The mark [3] stands for this setting: 10, 1 and 0.1 μL per day and per mouse.

B1: AADAT: recombinant murine Alpha-Aminoadipate AminoTransferase (SEQ ID NO:13) expressed in E. coli and purified by affinity chromatography (protein, listed as Mus musculus)
chain: MNYSRFLTATSLARKPSPIRTTADILSKAPKTLISLAPGSPNPSMFPFKSAAFTVENGSTIRFEDDLIKRALQYSPSYGIPELLSWLKQFQVKLHNPPTVNYPPNQGQMDLCITSGCQDGLCKAFEMLINPGDTILVNEPLFPGTLYAMKPLGCNIINVPSDEHGIIPEGLKKILSQWKPEDSKDPTKKTPKFLYTVPNGNNPTGNSLTGDRKKEIYELARKYDFLIIEDDPYYFLQFSKPWEPTFLSMDVDGRVIRADTFSKTVSSGLRVGFMTGPKTLIQNIVLHTQVSSVHACTLSQLMILQLLHQWGEEGFLAHIDRTIDFYKNQRDSILAAADKWLRGLAEWHVPKAGMFLWIKVKGISDTKQLIEEKAIEREVLLVPGNGFFIDGSAPTSFFRASFSLATPAQMDTAFQRLAQLIKESL
In the case of B1, in experiment [1] (1 and 0.1 μL per day and per mouse), the “protective effect at the two lower doses” value was “protective effect is also seen”. In addition, in experiment [1] (setting [3]), the clinical score result was “protection, with a dose effect”; the histological score result is “protection, with a dose effect”; the weight loss entry is reported as “protection, with a dose effect”. For the same molecule, the colon length entry in experiment [1] (10, 1 and 0.1 μL per day and per mouse, day 12) was “protection, with a dose effect”. Moreover, in experiment [2], the “transformation of KYNU into KYNA and XANA” value is on record as “A dose effect can be observed”.
